Several values for one entry are separate records, joined by “and”; a condition that tells them apart may be missing. Equal entries are not always repeated.
Legend:
[1] = tested on: Asterina miniata immature oocytes; assay: Microinjection into immature starfish oocytes, oocyte maturation (GVBD, polar body extrusion); assay type: cell-based; settings: for maturation and fertilization of injected egg: 10 μM 1-MA
Procedure: (§1) Asterina miniata gametes were collected and microinjections were performed as described previously (Carroll et al., 1999). Briefly, quantitative microinjection of Asterina miniata oocytes was performed at 16° C., using mercury-filled micropipets (Hiramoto, 1962; Kiehart, 1982; and see the information available at http://egg/uchc.edu/injection), allowing injection of precisely calibrated picoliter volumes into the oocytes and blastomeres. Injection volumes were 3% of the total cellular volume (for oocytes, 93 pL and for blastomeres, 47 pL). Buffer alone, purified O-acetylated ADP ribose or recombinant protein was injected into immature oocytes or one blastomere of a two cell stage embryo to a final concentration in the cytoplasm as indicated in the figure legends and Tables. 1-methyl adenine was from Sigma and was used at 10 μM.
Micro-injection assays were performed in starfish and sea urchin ooctyes. Historically echinoderm development has been a biochemically tractable and well-defined system to assess biological function of pruteins, bio-active compounds and for detailed analyses of the cell cycle. This system is attractive for its amenability to quantitative microinjection assays, cell cycle analyses, biochemical fractionation and microscopic imaging of eggs and early embryos. Initially, we hypothesized that if O-acetyl-ADP ribose produced by SIR2 was involved in SIR2's gene silencing ability, then micro-injection of O-acetyl-ADP ribose into a maturing oocyte should give rise to a phenotypic effect on the developing animal, perhaps through perturbations in normal gene expression patterns. Immature oocytes were micro-injected with HPLC-purified O-acetyl-ADP ribose or with a buffer control. The oocytes were allowed to mature by the addition of 1-methyladenine and assessed for developmental alterations.
Asterina miniata immature oocytes were microinjected with the amounts of O-acetyl ADP ribose in PBS. The maturation hormone 1-methyladenine was added (10 μM) 25-30 minutes post-injection. Oocytes were monitored for GVBD and polar body extrusion. […] The number of oocytes per treatment is given. Combined results of 3 separate experiments (3 batches of O-acetyl ADP ribose).
Asterina miniata immature oocytes were microinjected with the given enzymes in PBS. The maturation hormone 1-methyladenine was added (10 μM) 25-30 minutes post-injection. Oocytes were monitored for GVBD and polar body extrusion. […] The number of oocytes per treatment (n) is given. Data are from four separate batches of oocytes. All oocytes for a given treatment responded in the same way unless indicated otherwise (e.g. see 200 nM HST2 injection).

[2] = tested on: Asterina miniata blastomere of two cell stage embryo; assay: Microinjection into one blastomere of two-cell stage embryo, early embryonic cell division; assay type: cell-based
Procedure: as §1
To examine whether these SIR2 enzymes caused any phenotypic effects on early embryonic cell division, HST2 or the R45A mutant were micro-injected into one cell of the two-cell stage embryos. Asterina miniata oocytes were matured by addition of the hormone 1-methyladenine and then fertilized. One cell zygotes were then placed in injection chambers. After the first cell division, one daughter blastomere was microinjected with the indicated enzyme (see table and figure below). Embryos were monitored for further cell divisions over time. The non-injected daughter blastomere served as the internal control in each experiment. […] Again, there was a clear dosage effect that paralleled the effect observed on oocyte maturation.
Asterina miniata oocytes were matured by addition of the hormone 1-methyladenine and then fertilized. One cell zygotes were then placed in injection chambers. After the first cell division, one daughter blastomere was microinjected with the indicated enzyme. Embryos were monitored for further cell divisions over time. The non-injected daughter blastomere served as the internal control in each experiment. The number of injected embryos per treatment is given (n). Data are from two separate batches of oocytes.

[3] = target: acetyl-peptide (Saccharomyces cerevisiae, UniProt P53686, R45A); assay: Catalytic efficiency of R45A mutant compared to wild type HST2; assay type: biochemical; settings: unpublished data
Chain of acetyl-peptide (P53686 whole entry R45A): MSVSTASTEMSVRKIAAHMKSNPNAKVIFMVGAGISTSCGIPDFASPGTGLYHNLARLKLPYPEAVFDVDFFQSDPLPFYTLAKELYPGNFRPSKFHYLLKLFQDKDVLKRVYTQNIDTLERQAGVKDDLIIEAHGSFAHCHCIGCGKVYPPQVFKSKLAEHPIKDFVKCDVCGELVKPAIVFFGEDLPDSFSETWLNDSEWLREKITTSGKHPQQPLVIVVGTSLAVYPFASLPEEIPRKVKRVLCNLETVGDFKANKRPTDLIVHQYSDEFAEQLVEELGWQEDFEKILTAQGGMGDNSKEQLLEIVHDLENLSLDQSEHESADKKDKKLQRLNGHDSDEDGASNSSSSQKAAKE
Text: To complement these studies, we micro-injected active yeast HST2 and human SIR2 enzymes instead of O-acetyl-ADP ribose. We hypothesized that if acetylated protein substrates were available in the oocyte, then micro-injected enzyme would provide a more constant source of O-acetyl-ADP ribose. As a control, a catalytically impaired mutant of HST2 (R45A) was employed to ensure that any effects were due to the catalytic activity of the enzyme. The R45A mutant is >50-fold lower in catalytic efficiency (kcat and kcat/Km for acetyl-peptide) compared to wild type enzyme (unpublished data).

[4] = final conc 200 nM in blastomere

Row | Molecule | effect on oocyte maturation ([1]; above 72 nM) | Effects/Notes (oocyte maturation) ([1]; final conc 25 nM) | Effects/Notes (oocyte maturation) ([1]; final conc 60 nM) | Effects/Notes (oocyte maturation) ([1]; final conc 200 nM) | Effects: 3rd cell division ([2]; final conc 25 nM in blastomere) | Effects: Next cell division ([2]; final conc 25 nM in blastomere) | Effects: other ([2]; final conc 25 nM in blastomere) | Effects: 3rd cell division ([2]; final conc 72 nM in blastomere) | Effects: Next cell division ([2]; final conc 72 nM in blastomere) | Effects: 3rd cell division [2, 4] | Effects: Next cell division [2, 4] | Effects/Notes (oocyte maturation) ([1]; final conc 72 nM) | also measured
1 | hSIRT2: human SIR2 enzyme (protein, UniProt Q8IXJ6 2-389, looked up) NAD-dependent protein …: AEPDPSHPLETQAGKVQEAQDSDSDSEGGAAGGEADMDFLRNLFSQTLSLGSQKERLLDELTLEGVARYMQSERCRRVICLVGAGISTSAGIPDFRSPSTGLYDNLEKYHLPYPEAIFEISYFKKHPEPFFALAKELYPGQFKPTICHYFMRLLKDKGLLLRCYTQNIDTLERIAGLEQEDLVEAHGTFYTSHCVSASCRHEYPLSWMKEKIFSEVTPKCEDCQSLVKPDIVFFGESLPARFFSCMQSDFLKVDLLLVMGTSLQVQPFASLISKAPLSTPRLLINKEKAGQSDPFLGMIMGLGGGMDFDSKKAYRDVAWLGECDQGCLALAELLGWKKELEDLVRREHASIDAQSGAGVPNPSTSASPKKSPPPAKDEARTTEREKPQ | complete block in maturation | no effect was observed | 2 hr delay in GVBD and polar body extrusion and polar | complete block |  |  |  |  |  |  |  |  | 
2 | HST2: yeast SIR2 homolog, recombinant histidine tagged full length NAD-dependent deacetylase (protein, UniProt P53686 2-357, looked up) NAD-dependent protein …: SVSTASTEMSVRKIAAHMKSNPNAKVIFMVGAGISTSCGIPDFRSPGTGLYHNLARLKLPYPEAVFDVDFFQSDPLPFYTLAKELYPGNFRPSKFHYLLKLFQDKDVLKRVYTQNIDTLERQAGVKDDLIIEAHGSFAHCHCIGCGKVYPPQVFKSKLAEHPIKDFVKCDVCGELVKPAIVFFGEDLPDSFSETWLNDSEWLREKITTSGKHPQQPLVIVVGTSLAVYPFASLPEEIPRKVKRVLCNLETVGDFKANKRPTDLIVHQYSDEFAEQLVEELGWQEDFEKILTAQGGMGDNSKEQLLEIVHDLENLSLDQSEHESADKKDKKLQRLNGHDSDEDGASNSSSSQKAAKE | complete block in maturation | no effect was observed | 2 hr delay in GVBD and polar body extrusion | complete block in 9/10; 3 hr delay 1/10 | Normal | 4/5 normal and 1/5 as slight | Normal | Complete | 4/10 slight and 6/10 no | Complete | 2/7 slight and 5/7 no | complete block | development of injected cells ([2]; 25 nM, most cells): developed normally; division of injected blastomere ([2]; 200 nM, injected after complete cytokinesis, FIG. 10C): divided once, then both daughters stopped; effect on cell division of injected blastomere ([2]; at and above 72 nM): complete block in cell division either at the next or subsequent division; maturation and fertilization of injected egg ([1]; 200 nM final, fertilized 4 hours later, FIG. 10A): failed to mature; injected eggs in chamber behaving the same way (failed to mature) ([1]; 200 nM final, FIG. 10A): 10 of 10
3 | HST2 R45A: catalytically impaired mutant of HST2 (R45A) (protein, UniProt P53686 2-357, looked up, variant R45A) NAD-dependent protein …: SVSTASTEMSVRKIAAHMKSNPNAKVIFMVGAGISTSCGIPDFASPGTGLYHNLARLKLPYPEAVFDVDFFQSDPLPFYTLAKELYPGNFRPSKFHYLLKLFQDKDVLKRVYTQNIDTLERQAGVKDDLIIEAHGSFAHCHCIGCGKVYPPQVFKSKLAEHPIKDFVKCDVCGELVKPAIVFFGEDLPDSFSETWLNDSEWLREKITTSGKHPQQPLVIVVGTSLAVYPFASLPEEIPRKVKRVLCNLETVGDFKANKRPTDLIVHQYSDEFAEQLVEELGWQEDFEKILTAQGGMGDNSKEQLLEIVHDLENLSLDQSEHESADKKDKKLQRLNGHDSDEDGASNSSSSQKAAKE |  | no observed effect | no observed effect | no observed effect | Normal | Normal | Normal | Normal | Normal | Normal | normal | no observed effect | phenotype of injected blastomere ([2]; any concentration): no phenotype; Effects: other ([2]; final conc 72 nM in blastomere): Normal; Effects: other [2, 4]: Normal; lower in catalytic efficiency (kcat and kcat/Km for acetyl-peptide) compared to wild type enzyme [3]: > 50 fold; maturation and fertilization of injected egg ([1]; fertilized four hours later, FIG. 10B): matured and were fertilized normally; injected eggs in chamber behaving the same way (matured, fertilized normally) ([1]; FIG. 10B): 7 of 7; effect on oocyte maturation ([1]; any concentration from 25-200 nM): no observed effects

— US7521432B2, “Compositions and methods for identifying agents which regulate chromosomal stability, gene activation and aging” (priority 2000, dated 2009)
